IntAct's records for PubMed 18854156

B1: Sporulation initiation inhibitor protein Soj (Bacillus subtilis), P37522 (parent)
chain: MGKIIAITNQKGGVGKTTTSVNLGACLAYIGKRVLLVDIDPQGNATSGLGIEKADVEQCVYDILVDDADVIDIIKATTVENLDVIPATIQLAGAEIELVPTISREVRLKRALEAVKQNYDYIIIDCPPSLGLLTINALTASDSVVIPVQCEYYALEGLSQLLNTVRLVQKHLNTDLMIEGVLLTMLDARTNLGIQVIEEVKKYFRDKVYKTVIPRNVRLSEAPSHGKPIILYDPRSRGAEVYLDLAKEVAANG

Variants of: B1
Settings: with dnaa_bacsu dnaA

Row | effect of a mutation on the interaction | Variant
1 | decreasing interaction | MGKIIAITNQKGGVGKTTTSVNLGACLAYIGKRVLLVDIAPQGNATSGLGIEKADVEQCVYDILVDDADVIDIIKATTVENLDVIPATIQLAGAEIELVPTISREVRLKRALEAVKQNYDYIIIDCPPSLGLLTINALTASDSVVIPVQCEYYALEGLSQLLNTVRLVQKHLNTDLMIEGVLLTMLDARTNLGIQVIEEVKKYFRDKVYKTVIPRNVRLSEAPSHGKPIILYDPRSRGAEVYLDLAKEVAANG [D40A]

Variants of: B1
Settings: with dnaa_bacsu dnaA
Remark: another data set of the same source

Row | effect of a mutation on the interaction | Variant
2 | increasing interaction | MGKIIAITNQKVGVGKTTTSVNLGACLAYIGKRVLLVDIDPQGNATSGLGIEKADVEQCVYDILVDDADVIDIIKATTVENLDVIPATIQLAGAEIELVPTISREVRLKRALEAVKQNYDYIIIDCPPSLGLLTINALTASDSVVIPVQCEYYALEGLSQLLNTVRLVQKHLNTDLMIEGVLLTMLDARTNLGIQVIEEVKKYFRDKVYKTVIPRNVRLSEAPSHGKPIILYDPRSRGAEVYLDLAKEVAANG [G12V]
3 | increasing interaction | MGKIIAITNQKGGVGATTTSVNLGACLAYIGKRVLLVDIDPQGNATSGLGIEKADVEQCVYDILVDDADVIDIIKATTVENLDVIPATIQLAGAEIELVPTISREVRLKRALEAVKQNYDYIIIDCPPSLGLLTINALTASDSVVIPVQCEYYALEGLSQLLNTVRLVQKHLNTDLMIEGVLLTMLDARTNLGIQVIEEVKKYFRDKVYKTVIPRNVRLSEAPSHGKPIILYDPRSRGAEVYLDLAKEVAANG [K16A]
